The chains are these.
B1: target 2 MT 5'PFS GAC 3'PFS CAC (mixed)
RNA 1: CACCCGUGCAAAAUUGCAGGGGUCUAAAACCUUCUCCAAAUUGUUUCAUCCU
RNA 2: GGGAAUGGAUCCACAUCUACGAAUUCGACAGGAUGAAACAAUUUGGAGAAGCACAGAUCGGAAGAGCACACGU
B2: target 2 MT 5'PFS UUG 3'PFS CCA (mixed)
RNA 1: B1 RNA 1
RNA 2: B1 RNA 2 with G27U, A28U, C29G, A53C, C54A
B3: target 2 MT 5'PFS AAG 3'PFS AAA (mixed)
RNA 1: B1 RNA 1
RNA 2: B1 RNA 2 with G27A, C29G, C52A, C54A
B4: target 2 MT 5'PFS AUU 3'PFS AUU (mixed)
RNA 1: B1 RNA 1
RNA 2: B1 RNA 2 with G27A, A28U, C29U, C52A, A53U, C54U
B5: target 2 MT 5'PFS CAG 3'PFS ACU (mixed)
RNA 1: B1 RNA 1
RNA 2: B1 RNA 2 with G27C, C29G, C52A, A53C, C54U
B6: target 2 MT 5'PFS GUC 3'PFS UCC (mixed)
RNA 1: B1 RNA 1
RNA 2: B1 RNA 2 with A28U, C52U, A53C
B7: target 2 MT 5'PFS GGU 3'PFS CCG (mixed)
RNA 1: B1 RNA 1
RNA 2: B1 RNA 2 with A28G, C29U, A53C, C54G
B8: target 2 MT 5'PFS UCA 3'PFS CCU (mixed)
RNA 1: B1 RNA 1
RNA 2: B1 RNA 2 with G27U, A28C, C29A, A53C, C54U
B9: target 2 MT 5'PFS UGG 3'PFS AAU (mixed)
RNA 1: B1 RNA 1
RNA 2: B1 RNA 2 with G27U, A28G, C29G, C52A, C54U
B10: target 2 MT 5'PFS GAC 3'PFS CAU (mixed)
RNA 1: B1 RNA 1
RNA 2: B1 RNA 2 with C54U
B11: target 2 MT 5'PFS CUC 3'PFS CAU (mixed)
RNA 1: B1 RNA 1
RNA 2: B1 RNA 2 with G27C, A28U, C54U
B12: target 2 MT 5'PFS UUA 3'PFS UAA (mixed)
RNA 1: B1 RNA 1
RNA 2: B1 RNA 2 with G27U, A28U, C29A, C52U, C54A
B13: target 2 MT 5'PFS UAU 3'PFS UAU (mixed)
RNA 1: B1 RNA 1
RNA 2: B1 RNA 2 with G27U, C29U, C52U, C54U
B14: target 2 MT 5'PFS UGU 3'PFS AUU (mixed)
RNA 1: B1 RNA 1
RNA 2: B1 RNA 2 with G27U, A28G, C29U, C52A, A53U, C54U
B15: target 2 MT 5'PFS AUU 3'PFS ACU (mixed)
RNA 1: B1 RNA 1
RNA 2: B1 RNA 2 with G27A, A28U, C29U, C52A, A53C, C54U
B16: target 2 MT 5'PFS GUC 3'PFS UCG (mixed)
RNA 1: B1 RNA 1
RNA 2: B1 RNA 2 with A28U, C52U, A53C, C54G
B17: target 2 MT 5'PFS CUC 3'PFS CAC (mixed)
RNA 1: B1 RNA 1
RNA 2: B1 RNA 2 with G27C, A28U
B18: target 2 MT 5'PFS CUC 3'PFS CAA (mixed)
RNA 1: B1 RNA 1
RNA 2: B1 RNA 2 with G27C, A28U, C54A
B19: target 2 MT 5'PFS GCG 3'PFS CUU (mixed)
RNA 1: B1 RNA 1
RNA 2: B1 RNA 2 with A28C, C29G, A53U, C54U
B20: target 2 MT 5'PFS CUU 3'PFS AUA (mixed)
RNA 1: B1 RNA 1
RNA 2: B1 RNA 2 with G27C, A28U, C29U, C52A, A53U, C54A
B21: target 2 MT 5'PFS GUC 3'PFS UCA (mixed)
RNA 1: B1 RNA 1
RNA 2: B1 RNA 2 with A28U, C52U, A53C, C54A
B22: target 2 MT 5'PFS GAG 3'PFS AAA (mixed)
RNA 1: B1 RNA 1
RNA 2: B1 RNA 2 with C29G, C52A, C54A
B23: target 2 MT 5'PFS GGU 3'PFS CCA (mixed)
RNA 1: B1 RNA 1
RNA 2: B1 RNA 2 with A28G, C29U, A53C, C54A
B24: target 2 MT 5'PFS GAG 3'PFS AAG (mixed)
RNA 1: B1 RNA 1
RNA 2: B1 RNA 2 with C29G, C52A, C54G
B25: target 2 MT 5'PFS UCA 3'PFS CCA (mixed)
RNA 1: B1 RNA 1
RNA 2: B1 RNA 2 with G27U, A28C, C29A, A53C, C54A
B26: target 2 MT 5'PFS GAG 3'PFS AAC (mixed)
RNA 1: B1 RNA 1
RNA 2: B1 RNA 2 with C29G, C52A
B27: target 2 MT 5'PFS GUC 3'PFS UCU (mixed)
RNA 1: B1 RNA 1
RNA 2: B1 RNA 2 with A28U, C52U, A53C, C54U
B28: target 2 MT 5'PFS GCG 3'PFS CUC (mixed)
RNA 1: B1 RNA 1
RNA 2: B1 RNA 2 with A28C, C29G, A53U
B29: target 2 MT 5'PFS UGG 3'PFS AAA (mixed)
RNA 1: B1 RNA 1
RNA 2: B1 RNA 2 with G27U, A28G, C29G, C52A, C54A
B30: target 2 MT 5'PFS GCG 3'PFS AAA (mixed)
RNA 1: B1 RNA 1
RNA 2: B1 RNA 2 with A28C, C29G, C52A, C54A
B31: target 2 MT 5'PFS CGU 3'PFS CCG (mixed)
RNA 1: B1 RNA 1
RNA 2: B1 RNA 2 with G27C, A28G, C29U, A53C, C54G
B32: target 2 MT 5'PFS UCA 3'PFS CCG (mixed)
RNA 1: B1 RNA 1
RNA 2: B1 RNA 2 with G27U, A28C, C29A, A53C, C54G
B33: target 2 MT 5'PFS CUC 3'PFS CAG (mixed)
RNA 1: B1 RNA 1
RNA 2: B1 RNA 2 with G27C, A28U, C54G
B34: target 1 insC 3' of 22,insC 3' of 5 (mixed)
RNA 1: CACCCGUGCAAAAAUGCAGGGGUCUAAAACUGAGCGGAUAACCUCUCUAUGG
RNA 2: GGGAAUGGAUCCACAUCUACGAAUUCGUACCCAUAGAGAGGUUAUCCGCCUCACCGAGAUCGGAAGAGCACACGU
B35: target 1 insU 3' of 17,insG 3' of 2 (mixed)
RNA 1: B34 RNA 1
RNA 2: B34 RNA 2 with C32A, A33U, U34A, A35G, G36U, C50U, U51C, C52G
B36: target 1 U11A,G17U (mixed)
RNA 1: B34 RNA 1
RNA 2: GGGAAUGGAUCCACAUCUACGAAUUCGUACCAUAUAGAGGAUAUCCGCUCACCGAGAUCGGAAGAGCACACGU

Residue numbers refer to the chain shown, from its start. Numbers in names are those of the source.

For the series, the target named is T1, EsCas13d, nuclease-dead (Eubacterium siraeum, UniProt B0MS50, R295A;H300A;R849A;H854A).
T1 sequence: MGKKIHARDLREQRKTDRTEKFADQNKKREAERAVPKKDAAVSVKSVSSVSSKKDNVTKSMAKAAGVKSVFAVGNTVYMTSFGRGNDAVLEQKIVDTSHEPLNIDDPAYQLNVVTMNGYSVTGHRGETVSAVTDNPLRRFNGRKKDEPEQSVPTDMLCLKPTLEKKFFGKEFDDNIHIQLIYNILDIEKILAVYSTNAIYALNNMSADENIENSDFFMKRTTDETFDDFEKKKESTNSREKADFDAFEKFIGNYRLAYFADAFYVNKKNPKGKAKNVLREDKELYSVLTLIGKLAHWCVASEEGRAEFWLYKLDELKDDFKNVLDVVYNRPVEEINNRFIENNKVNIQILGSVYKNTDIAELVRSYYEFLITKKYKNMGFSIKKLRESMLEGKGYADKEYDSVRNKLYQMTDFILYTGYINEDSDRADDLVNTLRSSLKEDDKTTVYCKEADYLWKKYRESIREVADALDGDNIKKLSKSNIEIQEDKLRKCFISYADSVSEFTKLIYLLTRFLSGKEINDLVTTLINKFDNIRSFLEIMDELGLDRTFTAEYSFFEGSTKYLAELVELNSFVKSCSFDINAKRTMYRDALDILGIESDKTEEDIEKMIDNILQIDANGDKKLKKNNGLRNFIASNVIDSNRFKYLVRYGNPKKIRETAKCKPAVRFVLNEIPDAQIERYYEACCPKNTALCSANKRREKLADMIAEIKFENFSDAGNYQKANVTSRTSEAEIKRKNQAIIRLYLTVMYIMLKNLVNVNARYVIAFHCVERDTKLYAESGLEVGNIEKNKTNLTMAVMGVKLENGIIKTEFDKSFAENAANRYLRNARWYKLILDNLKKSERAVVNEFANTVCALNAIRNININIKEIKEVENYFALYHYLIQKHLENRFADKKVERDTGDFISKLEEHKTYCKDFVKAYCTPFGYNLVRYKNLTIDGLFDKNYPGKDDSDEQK
Nature of the series: crRNA (strand 1, pre-loaded); Mg2+; 40 mM Tris-HCl pH 7.5, 150 mM NaCl, 6 mM MgCl2, 1 mM DTT, 0.1% Tween-20, 0.2 mg/ml BSA; 25 C; 10 min per concentration, then washed. The conditions noted are these: tags: His6-TwinStrep-SUMO cleaved; N-terminal SNAP kept (SNAP-Surface 488); label: 3' end held by stalled T7 RNA polymerase.
As for B1, the affinity, expressed as Kd, was 12.9 ± 2.4 nM.
For B2, the dissociation constant Kd – broadly, the concentration at which binding is half-saturated – was determined as 37 ± 10 nM.
B3 returned a Kd of 3.7 ± 0.7 nM.
As for B4, the figure is 5.5 ± 0.4 nM; as for B5, 6.2 ± 2.2 nM.
As for B6, the Kd amounted to 42 ± 6 nM.
In the case of B7, the Kd came out at 17.4 ± 1.8 nM.
As to B8, the Kd was roughly 30 nM.
Turning to B9, the Kd was found to be 5.9 ± 0.7 nM.
With B10, the Kd is 7.4 ± 1.2 nM.
With B11 the figure was 1.82 ± 0.19 nM; with B12, 17 ± 4 nM.
B13 yielded a Kd of 35 ± 8 nM.
The molecule B14 came in with a Kd of 11.9 ± 1.7 nM.
The molecule B15 came in with a Kd of 10.7 ± 1.3 nM.
As to B16, the Kd turned out to be 28 ± 6 nM.
In turn, B17 had a Kd of 3.9 ± 0.9 nM.
With B18, the Kd worked out at 1.72 ± 0.2 nM.
In the case of B19, binding was characterised by a dissociation constant (Kd) of 24 ± 6 nM.
For the molecule B20, binding was characterised by a dissociation constant (Kd) of 4.7 ± 0.7 nM.
The molecule B21 came in with a Kd of 17 ± 5 nM.
For the molecule B22, the affinity, expressed as Kd, was 4.1 ± 0.6 nM.
With B23 the figure was 24 ± 5 nM; with B24, 5.6 ± 0.5 nM.
Consider B25, for which the Kd was 10 ± 4 nM.
B26 showed a Kd of 6.1 ± 1 nM.
With B27, the Kd turned out to be 25.4 ± 3.3 nM.
In turn, B28 showed a Kd of 21 ± 4 nM.
B29 showed a Kd of 3.3 ± 0.4 nM.
The molecule B30 had a Kd of 9.9 ± 2.3 nM.
B31 had a Kd of roughly 40 nM.
On to B32, for which the Kd was 5 ± 0.9 nM.
In turn, B33 displayed an equilibrium dissociation constant (Kd) of 1.93 ± 0.21 nM.
B34 yielded a Kd of 60 ± 30 nM.
On to B35, for which binding was put at a Kd of 19.8 ± 2.5 nM.
As for B36, the figure is 84 ± 29 nM.

(Values after PMC10786891, “Massively parallel profiling of RNA-targeting CRISPR-Cas13d”.)
